{
  "source": "IntAct's records for PubMed 23572552",
  "parents": {"B1": {"name": "Golgi resident protein GCP60 (Homo sapiens), Q9H3P7 (parent)", "chain": "MAAVLNAERLEVSVDGLTLSPDPEERPGAEGAPLLPPPLPPPSPPGSGRGPGASGEQPEPGEAAAGGAAEEARRLEQRWGFGLEELYGLALRFFKEKDGKAFHPTYEEKLKLVALHKQVLMGPYNPDTCPEVGFFDVLGNDRRREWAALGNMSKEDAMVEFVKLLNRCCHLFSTYVASHKIEKEEQEKKRKEEEERRRREEEERERLQKEEEKRRREEEERLRREEEERRRIEEERLRLEQQKQQIMAALNSQTAVQFQQYAAQQYPGNYEQQQILIRQLQEQHYQQYMQQLYQVQLAQQQAALQKQQEVVVAGSSLPTSSKVNATVPSNMMSVNGQAKTHTDSSEKELEPEAAEEALENGPKESLPVIAAPSMWTRPQIKDFKEKIQQDADSVITVGRGEVVTVRVPTHEEGSYLFWEFATDNYDIGFGVYFEWTDSPNTAVSVHVSESSDDDEEEEENIGCEEKAKKNANKPLLDEIVPVYRRDCHEEVYAGSHQYPGRGVYLLKFDNSYSLWRSKSVYYRVYYTR", "partner": "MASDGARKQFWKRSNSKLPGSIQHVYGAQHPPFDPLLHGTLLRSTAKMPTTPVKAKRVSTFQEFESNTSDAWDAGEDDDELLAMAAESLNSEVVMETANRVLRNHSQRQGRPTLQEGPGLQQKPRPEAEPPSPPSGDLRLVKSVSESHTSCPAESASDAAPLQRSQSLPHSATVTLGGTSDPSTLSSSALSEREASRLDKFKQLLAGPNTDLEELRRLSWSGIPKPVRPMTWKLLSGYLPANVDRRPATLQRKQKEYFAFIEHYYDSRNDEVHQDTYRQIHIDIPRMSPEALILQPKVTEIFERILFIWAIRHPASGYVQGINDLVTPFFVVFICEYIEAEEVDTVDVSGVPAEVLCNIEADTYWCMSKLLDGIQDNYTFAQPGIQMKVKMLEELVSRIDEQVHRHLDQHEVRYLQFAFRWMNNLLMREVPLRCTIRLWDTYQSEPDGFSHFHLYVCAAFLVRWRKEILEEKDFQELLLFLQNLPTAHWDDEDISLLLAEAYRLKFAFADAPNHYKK"}, "B2": {"name": "Golgi resident protein GCP60 (Homo sapiens), Q9H3P7 (parent)", "chain": "B1 chain", "partner": "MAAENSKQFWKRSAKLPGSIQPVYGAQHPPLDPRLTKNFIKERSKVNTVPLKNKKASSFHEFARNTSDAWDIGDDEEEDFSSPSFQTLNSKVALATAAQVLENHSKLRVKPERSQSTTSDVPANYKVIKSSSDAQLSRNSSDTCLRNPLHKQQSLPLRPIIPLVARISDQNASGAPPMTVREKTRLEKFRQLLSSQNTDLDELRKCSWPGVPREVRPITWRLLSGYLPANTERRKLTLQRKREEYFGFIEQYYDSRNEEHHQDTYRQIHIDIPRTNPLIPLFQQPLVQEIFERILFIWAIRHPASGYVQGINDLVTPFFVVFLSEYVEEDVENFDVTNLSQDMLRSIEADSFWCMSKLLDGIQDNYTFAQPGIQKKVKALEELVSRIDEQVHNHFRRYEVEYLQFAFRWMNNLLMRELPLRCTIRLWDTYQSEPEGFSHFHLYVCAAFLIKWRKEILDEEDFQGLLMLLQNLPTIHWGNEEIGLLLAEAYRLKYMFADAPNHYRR"}, "B3": {"name": "Golgi resident protein GCP60 (Homo sapiens), Q9H3P7 (parent)", "chain": "B1 chain"}},
  "data": [
    {"variants_of": "B1", "conditions": "with tb22a_human TBC1D22A", "values": [
      {"variant": "P267A;G268A;N269A", "effect of a mutation on the interaction": "disrupting interaction strength"},
      {"variant": "C168A;C169A;H170A", "effect of a mutation on the interaction": "with no effect"},
      {"variant": "I246A;M247A;Q253A;T254A", "effect of a mutation on the interaction": "disrupting interaction strength"},
      {"variant": "L164A;L165A;N166A;R167A", "effect of a mutation on the interaction": "with no effect"},
      {"variant": "I246A;M247A", "effect of a mutation on the interaction": "disrupting interaction strength"},
      {"variant": "Q259A;Q260A;Y261A", "effect of a mutation on the interaction": "decreasing interaction strength"},
      {"variant": "R221A;L222A;R223A;R224A", "effect of a mutation on the interaction": "with no effect"},
      {"variant": "K188A;K189A;R190A;K191A", "effect of a mutation on the interaction": "with no effect"},
      {"variant": "K213A;R214A;R215A;R216A", "effect of a mutation on the interaction": "with no effect"},
      {"variant": "K209A;E210A;E211A;E212A", "effect of a mutation on the interaction": "with no effect"},
      {"variant": "R236A;L237A;R238A;L239A", "effect of a mutation on the interaction": "with no effect"},
      {"variant": "Q274A;I275A;L276A;I277A", "effect of a mutation on the interaction": "disrupting interaction strength"},
      {"variant": "E184A;E185A;Q186A;E187A", "effect of a mutation on the interaction": "with no effect"},
      {"variant": "R204A;E205A;R206A;L207A;Q208A", "effect of a mutation on the interaction": "with no effect"},
      {"variant": "E240A;Q241A;Q242A", "effect of a mutation on the interaction": "with no effect"},
      {"variant": "E192A;E193A;E194A;E195A", "effect of a mutation on the interaction": "with no effect"},
      {"variant": "R196A;R197A;R198A;R199A", "effect of a mutation on the interaction": "with no effect"},
      {"variant": "E225A;E226A;E227A;E228A", "effect of a mutation on the interaction": "with no effect"},
      {"variant": "E200A;E201A;E202A;E203A", "effect of a mutation on the interaction": "with no effect"},
      {"variant": "Y270A;E271A;Q272A;Q273A", "effect of a mutation on the interaction": "with no effect"}
    ]},
    {"variants_of": "B1", "conditions": "with tb22a_human TBC1D22A", "remark": "another data set of the same source", "values": [
      {"variant": "S414A;Y415A;L416A", "effect of a mutation on the interaction": "with no effect"},
      {"variant": "G494A;S495A;H496A", "effect of a mutation on the interaction": "with no effect"},
      {"variant": "F433A;E434A;W435A", "effect of a mutation on the interaction": "with no effect"},
      {"variant": "V256A;Q257A;F258A", "effect of a mutation on the interaction": "disrupting interaction strength"},
      {"variant": "F417A;W418A;E419A;F420A", "effect of a mutation on the interaction": "with no effect"},
      {"variant": "E282A;Q283A;H284A;Y285A", "effect of a mutation on the interaction": "disrupting interaction strength"},
      {"variant": "S344A;S345A", "effect of a mutation on the interaction": "with no effect"},
      {"variant": "Q264A;Q265A;Y266A", "effect of a mutation on the interaction": "with no effect"},
      {"variant": "S511A;Y512A;S513A", "effect of a mutation on the interaction": "with no effect"}
    ]},
    {"variants_of": "B2", "conditions": "with tb22b_human TBC1D22B", "values": [
      {"variant": "H284A", "effect of a mutation on the interaction": "disrupting interaction strength"},
      {"variant": "F433A;E434A;W435A", "effect of a mutation on the interaction": "with no effect"},
      {"variant": "G494A;S495A;H496A", "effect of a mutation on the interaction": "with no effect"},
      {"variant": "Q259A", "effect of a mutation on the interaction": "with no effect"},
      {"variant": "I275A", "effect of a mutation on the interaction": "with no effect"},
      {"variant": "Q245A", "effect of a mutation on the interaction": "with no effect"},
      {"variant": "S511A", "effect of a mutation on the interaction": "decreasing interaction strength"},
      {"variant": "Y285A", "effect of a mutation on the interaction": "decreasing interaction strength"},
      {"variant": "Q264A;Q265A;Y266A", "effect of a mutation on the interaction": "with no effect"},
      {"variant": "Y288A", "effect of a mutation on the interaction": "disrupting interaction strength"},
      {"variant": "Q287A", "effect of a mutation on the interaction": "with no effect"},
      {"variant": "T254A", "effect of a mutation on the interaction": "with no effect"},
      {"variant": "K243A", "effect of a mutation on the interaction": "with no effect"},
      {"variant": "S344A;S345A", "effect of a mutation on the interaction": "with no effect"},
      {"variant": "Q260A", "effect of a mutation on the interaction": "with no effect"},
      {"variant": "V256A;Q257A;F258A", "effect of a mutation on the interaction": "disrupting interaction strength"},
      {"variant": "Q253A", "effect of a mutation on the interaction": "with no effect"},
      {"variant": "F258A", "effect of a mutation on the interaction": "decreasing interaction strength"},
      {"variant": "Q286A", "effect of a mutation on the interaction": "with no effect"},
      {"variant": "S414A;Y415A;L416A", "effect of a mutation on the interaction": "with no effect"},
      {"variant": "Y261A", "effect of a mutation on the interaction": "decreasing interaction strength"},
      {"variant": "Q244A", "effect of a mutation on the interaction": "with no effect"},
      {"variant": "E282A;Q283A;H284A;Y285A", "effect of a mutation on the interaction": "disrupting interaction strength"},
      {"variant": "Q257A", "effect of a mutation on the interaction": "decreasing interaction strength"},
      {"variant": "I246A", "effect of a mutation on the interaction": "decreasing interaction strength"},
      {"variant": "L276A", "effect of a mutation on the interaction": "decreasing interaction strength"},
      {"variant": "S511A;Y512A;S513A", "effect of a mutation on the interaction": "with no effect"},
      {"variant": "F417A;W418A;E419A;F420A", "effect of a mutation on the interaction": "with no effect"}
    ]},
    {"variants_of": "B2", "conditions": "with tb22b_human TBC1D22B", "remark": "another data set of the same source", "values": [
      {"variant": "Q259A;Q260A;Y261A", "effect of a mutation on the interaction": "with no effect"},
      {"variant": "P267A;G268A;N269A", "effect of a mutation on the interaction": "disrupting interaction strength"}
    ]},
    {"variants_of": "B3", "conditions": "with polg_aiva8 polg", "values": [
      {"variant": "S511A", "effect of a mutation on the interaction": "with no effect"},
      {"variant": "F417A;W418A;E419A;F420A", "effect of a mutation on the interaction": "disrupting interaction strength"},
      {"variant": "E282A;Q283A;H284A;Y285A", "effect of a mutation on the interaction": "with no effect"},
      {"variant": "E434A", "effect of a mutation on the interaction": "with no effect"},
      {"variant": "V256A;Q257A;F258A", "effect of a mutation on the interaction": "with no effect"},
      {"variant": "F433A;E434A;W435A", "effect of a mutation on the interaction": "disrupting interaction strength"},
      {"variant": "S511A;Y512A;S513A", "effect of a mutation on the interaction": "disrupting interaction strength"},
      {"variant": "G494A;S495A;H496A", "effect of a mutation on the interaction": "disrupting interaction strength"},
      {"variant": "F433A", "effect of a mutation on the interaction": "disrupting interaction strength"},
      {"variant": "W435A", "effect of a mutation on the interaction": "with no effect"},
      {"variant": "Q264A;Q265A;Y266A", "effect of a mutation on the interaction": "with no effect"},
      {"variant": "S344A;S345A", "effect of a mutation on the interaction": "with no effect"},
      {"variant": "H496A", "effect of a mutation on the interaction": "with no effect"},
      {"variant": "S414A;Y415A;L416A", "effect of a mutation on the interaction": "decreasing interaction strength"}
    ]},
    {"variants_of": "B3", "conditions": "with polg_hkv1 polg", "values": [
      {"variant": "F417A;W418A;E419A;F420A", "effect of a mutation on the interaction": "disrupting interaction strength"},
      {"variant": "E282A;Q283A;H284A;Y285A", "effect of a mutation on the interaction": "with no effect"},
      {"variant": "V256A;Q257A;F258A", "effect of a mutation on the interaction": "with no effect"},
      {"variant": "F433A;E434A;W435A", "effect of a mutation on the interaction": "disrupting interaction strength"},
      {"variant": "S511A;Y512A;S513A", "effect of a mutation on the interaction": "disrupting interaction strength"},
      {"variant": "G494A;S495A;H496A", "effect of a mutation on the interaction": "disrupting interaction strength"},
      {"variant": "Q264A;Q265A;Y266A", "effect of a mutation on the interaction": "with no effect"},
      {"variant": "S344A;S345A", "effect of a mutation on the interaction": "with no effect"},
      {"variant": "S414A;Y415A;L416A", "effect of a mutation on the interaction": "disrupting interaction strength"}
    ]}
  ]
}
